Data taken from the DeepSol protein solubility set.

Experiment: soluble on expression in E. coli; label from the status in PepcDB or PDB records
For “MAKNAPRFVCQACGAVYPRWMGRCEACGEWNSIAEEAPAEALPKGQTGGRGGQRLSFVSLEGVGAPPPRLLTGIPELDRVAGGGLVAGSALLIGGDPGIGKSTLLLQAVAGLARGGARSVYISGEEAIDQVRLRALRLGLEKAPVDLAAATSVRDIVATLDSGEPPDVVVIDSIQTMYLDTLDSAPGTVAQVRAGSHELIRLAKRRGFVLFLVGHVTKEGQMAGPRVMEHMVDAVIYFEGERGHPFRILRAVKNRFGATDEIGVFEMSDAGLSEVPNPSALFLAERRGNVTGSCVFAGMEGTRPMLVEIQALVGPSAPGSARRAVVGWDGGRLAMVMAVLETRCGLALGGNDVYLNVAGGLRIGEPAADLAVAAALVSSFSGVPVPPDMVVFGEIGLSGEIRAVAHGDTRLKEAAKLGFDQALMPARPRDSGKRGGPGVKEGLRMREIGHLQDLVALLAPPENAGQGQRLEHHHHHH”, the “soluble on expression in E. coli” value was “soluble”. In the case of “MAKNIQAIRGMNDYLPGETAIWQRIEGTLKNVLGSYGYSEIRLPIVEQTPLFKRAIGEVTDVVEKEMYTFEDRNGDSLTLRPEGTAGCVRAGIEHGLLYNQEQRLWYIGPMFRHERPQKGRYRQFHQLGCEVFGLQGPDIDAELIMLTARWWRALGISEHVTLELNSIGSLEARANYRDALVAFLEQHKEKLDEDCKRRMYTNPLRVLDSKNPEVQALLNDAPALGDYLDEESREHFAGLCKLLESAGIAYTVNQRLVRGLDYYNRTVFEWVTNSLGSQGTVCAGGRYDGLVEQLGGRATPAVGFAMGLERLVLLVQAVNPEFKADPVVDIYLVASGADTQSAAMALAERLRDELPGVKLMTNHGGGNFKKQFARADKWGARVAVVLGESEVANGTAVVKDLRSGEQTAVAQDSVAAHLRTLLG”, the “soluble on expression in E. coli” value is reported as “soluble”. For “MAKNSRSKTQFENMKYEIAKEVGVNLKQGYNGDLTAREAGKIGGNIVKKVFQSYTGNSYPSERLGDTSR”, the “soluble on expression in E. coli” value was “not soluble”. In the case of “MAKPVVIGSRSFRTQSSALDHYKALLHRYQDGQRIADPADHTDLVALIERFDPVLDAVGEPAKGAGQIAHFERRLNTGIGWSTPGFWVVRQDGTETDFSYIDAVKGRPKGRSQDFYNACRQAVALDLVLAKKQAFAQYGDDQGRVECELTGKMVTIDDAHLDHAWPYFSHMVSGFRAARGWSRDIPDGIVSTPADGQTTATFLDSAVTEAFRAFHHDQAVLRVLSREANLQTASSARRPKVARPVRLA”, the “soluble on expression in E. coli” value is reported as “not soluble”. In the case of “MAKTPVLLDRWGKPVKRAVLTEEISAATLGSVRSPITGYPADGLNPVRLASILREADAGDPVRYLELAETIEERDLHYLGVLGTRRRSVSQLDITVEAASDDPRDVEIADMIRDWLTRDELSDELFHMLDCIGKGYSFTEIIWDTSEGQWRPARLEWRDPRWFRFDRAALTTPLMLGPHGEELELTPFKFIFAEVKAKSGIALRSGLARAAAWAWMFKAFTQRDWAIFTQTYGQPLRLGRYGPGASEDDKATLFRAVANIAGDCAAIIPESMAIDFVETKSVGATADLYKQRADWLDQQISKAVLGQTATTDAVTGGLGSGKEHRQVQEDIERADAKALSGILNRDLIRPWVDLEYGPQARYPRLKIARPEPEDLKAMAEALAALVPIGLRVSQKKTRDRFGFDEPENDADVMGGTPAAAAVAAPPGADRPIKRFSGVFKGGEPPARPETALQAEAAPAALPASDDPAALLADRLAADAAPAMGAMIERVETMLAAAGSLAEFREMLLAGFPGIDAGDLATLMAQAMMAAHAGGRAAAEDAGA”, the “soluble on expression in E. coli” value is reported as “not soluble”. In the case of “MAKYHDIASPAYILEEDLLRRNLSLIASVADRTGVEIILAFKAYALWRTFPIIREYVPHSTASSVWEARLAFEEMGAPAHTFSPAYTPEEFPEILRYSSHVTFNSLSQYYLLSPMVKNVGVSLGLRINPEYSAVETALYNPCAPGSRFGVSASELGDTLPEGIEGLHFHTLCESTGYELEKTLKIIEDRFASVLEQA”, the “soluble on expression in E. coli” value is reported as “not soluble”. With “MALEYVVTKRVFGFDKDKNEKYVAKSVRSGRVSFSKMCGKVSRLCGVHRKVVDLVVSGLVDMMAEDIDDGKSVQMGEFGIFSPTIRAKSADDEKEVSSKSIVQRKILFYPGKIFKTTLDDMSITRRAELDTDYTDGSSNNGSGSEKPNPGGDGGKDDEEAPDPTV” the “soluble on expression in E. coli” value was “not soluble”.
